Results from the supplement of paper PMC10567573.

B1: EPB41L3 (parent)
chain: GSKFRYSGRTQAQTRRASALIDRP
B2: ALDH8A1 (parent)
chain: FTGSQPTAERITQLSAPHCKKLSL

Variants of: B1
Assay: protein stability index of a GFP-peptide fusion (GPS, HEK-293T) (PSI 1-6); higher = more stable
Conditions: c terminus: a fixed tail appended
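Note: lentivirally expressed fusions sorted by FACS into six bins by GFP to DsRed ratio, PSI derived from sequencing read proportions per bin multiplied by bin number.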

| Variant | protein stability index |
| --- | --- |
| S7A | 2.91 |
| S7E | 3.63 |
| S7F | 2.96 |
| S7C | 2.1 |
| S7D | 3.68 |
| S7G | 3.85 |
| K3L | 2.92 |
| K3P | 2.04 |
| K3F | 2.34 |
| K3H | 2.33 |
| K3M | 2.84 |
| K3E | 2.19 |
| K3T | 2.74 |
| K3C | 1.75 |
| K3V | 2.33 |
| K3N | 3.08 |
| K3A | 2.02 |
| K3Y | 1.89 |
| K3S | 2.64 |
| K3W | 2.46 |
| K3D | 2.5 |
| K3G | 1.94 |
| K3R | 2.83 |
| K3I | 2.67 |

| Variant | protein stability index |
| --- | --- |
| K3Q | 2.96 |
| S2W | 2.44 |
| S2E | 3.98 |
| S2I | 2.74 |
| S2Y | 2.68 |
| S2R | 2.51 |
| S2D | 4.02 |
| S2H | 2.98 |
| S2N | 2.6 |
| S2L | 2.33 |
| S2A | 2.66 |
| S2Q | 2.77 |
| S2C | 2.44 |
| S2K | 3.56 |
| S2T | 2.82 |
| S2P | 2.6 |
| S2G | 3.31 |
| S2M | 2.27 |
| S2F | 2.55 |
| S2V | 2.5 |
| G1D | 3.06 |
| G1W | 2.33 |
| G1A | 3.02 |
| G1V | 2.43 |

| Variant | protein stability index |
| --- | --- |
| G1M | 2.58 |
| G1C | 2.88 |
| G1S | 2.33 |
| G1K | 3.33 |
| G1N | 3.34 |
| G1I | 2.53 |
| G1Y | 1.85 |
| G1Q | 2.74 |
| G1F | 2.12 |
| G1H | 3.03 |
| G1P | 2.99 |
| G1E | 3.62 |
| G1R | 3.17 |
| G1L | 2.53 |
| G1T | 3.08 |
| Y6W | 3.49 |
| Y6C | 3.51 |
| Y6E | 4.13 |
| Y6V | 3.86 |
| Y6N | 3.67 |
| Y6P | 3.68 |
| Y6S | 3.85 |
| Y6R | 4.23 |
| Y6D | 4 |

| Variant | protein stability index |
| --- | --- |
| Y6I | 3.62 |
| Y6A | 3.85 |
| Y6Q | 3.71 |
| Y6T | 4.35 |
| Y6H | 3.22 |
| Y6K | 4.13 |
| Y6M | 4.64 |
| Y6L | 3.15 |
| Y6G | 3.91 |
| Y6F | 2.96 |
| R5Q | 3.26 |
| R5N | 3.23 |
| R5L | 2.71 |
| R5D | 3.74 |
| R5G | 3.8 |
| R5Y | 2.82 |
| R5C | 2.67 |
| R5M | 4.43 |
| R5V | 3.2 |
| R5K | 2.73 |
| R5S | 3.8 |
| R5W | 2.62 |
| R5P | 3.27 |
| R5E | 4.08 |

| Variant | protein stability index |
| --- | --- |
| R5T | 3.59 |
| R5I | 3.07 |
| R5F | 2.89 |
| R5A | 3.49 |
| R5H | 3.1 |
| F4Q | 4.47 |
| F4L | 3.95 |
| F4G | 3.62 |
| F4W | 2.86 |
| F4A | 4.23 |
| F4D | 4.17 |
| F4Y | 3.56 |
| F4S | 4.04 |
| F4M | 3.48 |
| F4H | 3.83 |
| F4R | 4.42 |
| F4T | 4.17 |
| F4E | 3.82 |
| F4V | 4.28 |
| F4K | 4.62 |
| F4P | 3.47 |
| F4N | 4.4 |
| F4C | 3.4 |
| F4I | 4 |

Variants of: B2
Assay: as above
Conditions: c terminus: a fixed tail appended

| Variant | protein stability index |
| --- | --- |
| S15H | 1.85 |
| S15F | 3.03 |
| S15Y | 3.69 |
| S15L | 2.87 |
| S15P | 2.32 |
| S15E | 2.37 |
| S15R | 1.71 |
| S15Q | 2.09 |
| S15N | 1.91 |
| S15G | 2.5 |
| S15V | 2.36 |
| S15M | 2.13 |
| S15T | 2.25 |
| S15D | 2.18 |
| S15A | 2.39 |
| S15I | 2.28 |
| S15C | 2.34 |
| S15W | 2.39 |
| S15K | 1.84 |
| Q13V | 1.69 |
| Q13S | 2.12 |
| Q13W | 2.67 |
| Q13T | 2.3 |
| Q13Y | 1.97 |

| Variant | protein stability index |
| --- | --- |
| L22F | 1.92 |
| L22V | 1.91 |
| L22Q | 2.68 |
| L22C | 2.27 |
| L22S | 2.61 |
| L22G | 2.88 |
| L22P | 2.26 |
| L22R | 2.23 |
| L22I | 2.76 |
| L22E | 3.46 |
| L22M | 2.14 |
| L22H | 2.29 |
| L22N | 2.54 |
| L22T | 2.61 |
| L22W | 2.19 |
| L22A | 2.85 |
| L22Y | 2.68 |
| L22D | 2.67 |
| L22K | 2.68 |
| C19S | 1.96 |
| C19L | 1.91 |
| C19Q | 2.79 |
| C19K | 2.75 |
| C19D | 2.73 |

| Variant | protein stability index |
| --- | --- |
| C19F | 2.91 |
| C19I | 1.66 |
| C19P | 2.06 |
| C19R | 2.45 |
| C19V | 2.04 |
| C19M | 1.96 |
| C19Y | 1.68 |
| C19N | 2.16 |
| C19T | 2.45 |
| C19H | 2.33 |
| C19A | 2.35 |
| C19E | 2.79 |
| C19W | 1.6 |
| C19G | 2.58 |
| A16K | 2.03 |
| A16I | 2.25 |
| A16C | 1.55 |
| A16W | 1.45 |
| A16E | 2.26 |
| A16T | 2.63 |
| A16S | 2.17 |
| A16F | 2.33 |
| A16L | 2.17 |
| A16Y | 2.05 |

| Variant | protein stability index |
| --- | --- |
| A16H | 2.13 |
| A16M | 1.91 |
| A16Q | 2.1 |
| A16P | 2.39 |
| A16N | 2.58 |
| A16R | 2.43 |
| A16V | 2.27 |
| A16G | 2.5 |
| A16D | 2.52 |
| S23P | 2.33 |
| S23V | 1.93 |
| S23C | 1.78 |
| S23G | 1.97 |
| S23Y | 2.66 |
| S23D | 2.69 |
| S23W | 1.85 |
| S23L | 1.81 |
| S23A | 2.4 |
| S23K | 2.03 |
| S23R | 1.79 |
| S23H | 2.02 |
| S23Q | 2.35 |
| S23M | 2.27 |
| S23I | 2.15 |

| Variant | protein stability index |
| --- | --- |
| S23F | 2.27 |
| S23T | 1.88 |
| S23E | 2.56 |
| S23N | 2.39 |
| K21N | 2.05 |
| K21H | 2.1 |
| K21D | 2.89 |
| K21R | 2.41 |
| K21E | 2.65 |
| K21M | 2.45 |
| K21W | 1.71 |
| K21Q | 2.23 |
| K21S | 2.22 |
| K21F | 1.9 |
| K21T | 2.06 |
| K21Y | 2.1 |
| K21L | 1.84 |
| K21A | 2.56 |
| K21V | 2.22 |
| K21G | 2.01 |
| K21I | 1.71 |
| K21C | 1.59 |
| K21P | 2.32 |
| H18S | 2.74 |

| Variant | protein stability index |
| --- | --- |
| H18E | 1.78 |
| H18G | 2.05 |
| H18N | 2.11 |
| H18V | 3 |
| H18K | 2.34 |
| H18W | 1.85 |
| H18P | 2.93 |
| H18L | 2.46 |
| H18D | 3.24 |
| H18A | 2.05 |
| H18T | 2.31 |
| H18Y | 2.14 |
| H18I | 2.55 |
| H18R | 2.55 |
| H18C | 1.94 |
| H18F | 2.25 |
| H18Q | 2.29 |
| H18M | 2.24 |
| L24K | 2.5 |
| L24H | 2.52 |
| L24I | 2.04 |
| L24A | 2.6 |
| L24M | 2.46 |
| L24P | 2.9 |

| Variant | protein stability index |
| --- | --- |
| L24F | 1.97 |
| L24V | 2.38 |
| L24W | 1.93 |
| L24G | 2.67 |
| L24S | 2.95 |
| L24R | 2.52 |
| L24T | 2.56 |
| L24Q | 2.9 |
| L24D | 3.23 |
| L24E | 2.96 |
| L24Y | 2.2 |
| L24N | 2.97 |
| L24C | 2.52 |
| K20V | 1.93 |
| K20C | 2.09 |
| K20W | 1.61 |
| K20A | 2.2 |
| K20I | 1.61 |
| K20F | 1.52 |
| K20T | 2.19 |
| K20H | 1.88 |
| K20E | 2.75 |
| K20R | 1.78 |
| K20L | 1.84 |

| Variant | protein stability index |
| --- | --- |
| K20G | 2.85 |
| K20S | 2.26 |
| K20P | 2.3 |
| K20Q | 2.8 |
| K20Y | 2.5 |
| K20D | 2.57 |
| K20N | 2.53 |
| K20M | 1.84 |
| L14A | 2.26 |
| L14Y | 2.39 |
| L14E | 3.18 |
| L14D | 3.04 |
| L14F | 1.79 |
| L14H | 2.58 |
| L14P | 2.77 |
| L14C | 1.79 |
| L14S | 2.76 |
| L14W | 2.2 |
| L14I | 2.53 |
| L14R | 2.37 |
| L14M | 1.86 |
| L14V | 1.9 |
| L14Q | 2.57 |
| L14T | 2.87 |

| Variant | protein stability index |
| --- | --- |
| L14K | 2.73 |
| L14G | 2.56 |
| L14N | 2.4 |
| P17F | 1.85 |
| P17W | 2.46 |
| P17K | 2.12 |
| P17A | 2.49 |
| P17D | 2.8 |
| P17V | 1.96 |
| P17C | 2.13 |
| P17G | 2.25 |
| P17R | 2.49 |
| P17Y | 2.05 |
| P17N | 2.55 |
| P17Q | 2.48 |
| P17H | 2.34 |
| P17T | 2.24 |
| P17I | 2.38 |
| P17E | 2.77 |
| P17S | 2.18 |
| P17M | 2.04 |
| P17L | 1.78 |
